{"source": "the supplement of paper PMC10567573", "parents": {"B1": {"name": "HESX1 (parent)", "chain": "ENKPSTCSFSIERILGLDQKKDCV"}, "B2": {"name": "EFHC1 (parent)", "chain": "NIYYYLEDDSMSVIEPVVENSGIL"}}, "data": [{"variants_of": "B1", "experiment": "protein stability index of a GFP-peptide fusion (GPS, HEK-293T) (PSI 1-6); higher = more stable", "conditions": "c terminus: a fixed tail appended", "values": [{"variant": "ENKPSTCSFSIERILGLDQKKDCN", "protein stability index": 3.79}, {"variant": "ENKPSTCSFSIERILGLDQKKDCM", "protein stability index": 2.89}, {"variant": "ENKPSTCSFSIERILGLDQKKDCI", "protein stability index": 3.64}, {"variant": "ENKPSTCSFSIERILGLDQKKDCK", "protein stability index": 4.15}, {"variant": "ENKPSTCSFSIERILGLDQKKDCY", "protein stability index": 2.74}, {"variant": "ENKPSTCSFSIERILGLDQKKDCS", "protein stability index": 2.88}, {"variant": "ENKPSTCSFSIERILGLDQKKDCP", "protein stability index": 3.14}, {"variant": "ENKPSTCSFSIERILGLDQKKDCE", "protein stability index": 4.25}, {"variant": "ENKPSTCSFSIERILGLDQKKDCD", "protein stability index": 4.18}, {"variant": "ENKPSTCSFSIERILGLDQKKDCG", "protein stability index": 3.9}, {"variant": "ENKPSTCSFSIERILGLDQKKDCL", "protein stability index": 3.03}, {"variant": "ENKPSTCSFSIERILGLDQKKDCA", "protein stability index": 3.81}, {"variant": "ENKPSTCSFSIERILGLDQKKDCT", "protein stability index": 2.83}, {"variant": "ENKPSTCSFSIERILGLDQKKDCQ", "protein stability index": 3.81}, {"variant": "ENKPSTCSFSIERILGLDQKKDCH", "protein stability index": 4.64}, {"variant": "ENKPSTCSFSIERILGLDQKKDCR", "protein stability index": 3.38}, {"variant": "ENKPSTCSFSIERILGLDQKKDCW", "protein stability index": 2.18}, {"variant": "ENKPSTCSFSIERILGLDQKKDCF", "protein stability index": 2.91}, {"variant": "ENKPSTCSFSIERILGLDQKKDCC", "protein stability index": 3.49}, {"variant": "ENKPSTCSFSIERILGLDQKKDQV", "protein stability index": 3.42}, {"variant": "ENKPSTCSFSIERILGLDQKKDNV", "protein stability index": 3.23}, {"variant": "ENKPSTCSFSIERILGLDQKKDRV", "protein stability index": 3.92}, {"variant": "ENKPSTCSFSIERILGLDQKKDYV", "protein stability index": 2.46}, {"variant": "ENKPSTCSFSIERILGLDQKKDSV", "protein stability index": 3.45}, {"variant": "ENKPSTCSFSIERILGLDQKKDTV", "protein stability index": 3.16}, {"variant": "ENKPSTCSFSIERILGLDQKKDLV", "protein stability index": 2.7}, {"variant": "ENKPSTCSFSIERILGLDQKKDKV", "protein stability index": 3.41}, {"variant": "ENKPSTCSFSIERILGLDQKKDVV", "protein stability index": 3.41}, {"variant": "ENKPSTCSFSIERILGLDQKKDPV", "protein stability index": 3.29}, {"variant": "ENKPSTCSFSIERILGLDQKKDMV", "protein stability index": 2.83}]}, {"variants_of": "B2", "experiment": "protein stability index of a GFP-peptide fusion (GPS, HEK-293T) (PSI 1-6); higher = more stable", "conditions": "c terminus: a fixed tail appended", "values": [{"variant": "NIYIYLEDDSMSVIEPVVENSGIL", "protein stability index": 1.49}, {"variant": "NIYGYLEDDSMSVIEPVVENSGIL", "protein stability index": 3.49}, {"variant": "NIYDYLEDDSMSVIEPVVENSGIL", "protein stability index": 2.74}, {"variant": "NIYFYLEDDSMSVIEPVVENSGIL", "protein stability index": 1.85}, {"variant": "NIYHYLEDDSMSVIEPVVENSGIL", "protein stability index": 2.33}, {"variant": "NIYAYLEDDSMSVIEPVVENSGIL", "protein stability index": 2.12}, {"variant": "NIYEYLEDDSMSVIEPVVENSGIL", "protein stability index": 2.78}, {"variant": "NIYCYLEDDSMSVIEPVVENSGIL", "protein stability index": 2.31}, {"variant": "NIYKYLEDDSMSVIEPVVENSGIL", "protein stability index": 2.66}, {"variant": "NICYYLEDDSMSVIEPVVENSGIL", "protein stability index": 2.9}, {"variant": "NIDYYLEDDSMSVIEPVVENSGIL", "protein stability index": 4.08}, {"variant": "NIRYYLEDDSMSVIEPVVENSGIL", "protein stability index": 3.04}, {"variant": "NIKYYLEDDSMSVIEPVVENSGIL", "protein stability index": 2.72}, {"variant": "NIVYYLEDDSMSVIEPVVENSGIL", "protein stability index": 2.38}, {"variant": "NISYYLEDDSMSVIEPVVENSGIL", "protein stability index": 3.2}, {"variant": "NIQYYLEDDSMSVIEPVVENSGIL", "protein stability index": 3.12}, {"variant": "NIPYYLEDDSMSVIEPVVENSGIL", "protein stability index": 3.39}, {"variant": "NIIYYLEDDSMSVIEPVVENSGIL", "protein stability index": 2.23}, {"variant": "NINYYLEDDSMSVIEPVVENSGIL", "protein stability index": 3.38}, {"variant": "NILYYLEDDSMSVIEPVVENSGIL", "protein stability index": 2.15}, {"variant": "NIEYYLEDDSMSVIEPVVENSGIL", "protein stability index": 3.76}, {"variant": "NIFYYLEDDSMSVIEPVVENSGIL", "protein stability index": 2.07}, {"variant": "NIMYYLEDDSMSVIEPVVENSGIL", "protein stability index": 2.17}, {"variant": "NITYYLEDDSMSVIEPVVENSGIL", "protein stability index": 3.64}, {"variant": "NIWYYLEDDSMSVIEPVVENSGIL", "protein stability index": 1.82}, {"variant": "NIHYYLEDDSMSVIEPVVENSGIL", "protein stability index": 2.81}, {"variant": "NIAYYLEDDSMSVIEPVVENSGIL", "protein stability index": 2.85}, {"variant": "NIGYYLEDDSMSVIEPVVENSGIL", "protein stability index": 3.43}, {"variant": "NMYYYLEDDSMSVIEPVVENSGIL", "protein stability index": 2.96}, {"variant": "NSYYYLEDDSMSVIEPVVENSGIL", "protein stability index": 3.4}, {"variant": "NHYYYLEDDSMSVIEPVVENSGIL", "protein stability index": 2.72}, {"variant": "NYYYYLEDDSMSVIEPVVENSGIL", "protein stability index": 2.07}, {"variant": "NNYYYLEDDSMSVIEPVVENSGIL", "protein stability index": 3.23}, {"variant": "NTYYYLEDDSMSVIEPVVENSGIL", "protein stability index": 3.29}, {"variant": "NGYYYLEDDSMSVIEPVVENSGIL", "protein stability index": 3.21}, {"variant": "NCYYYLEDDSMSVIEPVVENSGIL", "protein stability index": 2.29}, {"variant": "NFYYYLEDDSMSVIEPVVENSGIL", "protein stability index": 1.82}, {"variant": "NPYYYLEDDSMSVIEPVVENSGIL", "protein stability index": 3.82}, {"variant": "NRYYYLEDDSMSVIEPVVENSGIL", "protein stability index": 3.03}, {"variant": "NAYYYLEDDSMSVIEPVVENSGIL", "protein stability index": 2.86}, {"variant": "NLYYYLEDDSMSVIEPVVENSGIL", "protein stability index": 2.05}, {"variant": "NKYYYLEDDSMSVIEPVVENSGIL", "protein stability index": 3.44}, {"variant": "NQYYYLEDDSMSVIEPVVENSGIL", "protein stability index": 3.33}, {"variant": "NEYYYLEDDSMSVIEPVVENSGIL", "protein stability index": 3.79}, {"variant": "NDYYYLEDDSMSVIEPVVENSGIL", "protein stability index": 2.62}, {"variant": "NWYYYLEDDSMSVIEPVVENSGIL", "protein stability index": 2.35}, {"variant": "NVYYYLEDDSMSVIEPVVENSGIL", "protein stability index": 2.13}, {"variant": "KIYYYLEDDSMSVIEPVVENSGIL", "protein stability index": 1.09}, {"variant": "SIYYYLEDDSMSVIEPVVENSGIL", "protein stability index": 2.19}, {"variant": "MIYYYLEDDSMSVIEPVVENSGIL", "protein stability index": 2.34}, {"variant": "HIYYYLEDDSMSVIEPVVENSGIL", "protein stability index": 1.74}, {"variant": "QIYYYLEDDSMSVIEPVVENSGIL", "protein stability index": 2.83}, {"variant": "CIYYYLEDDSMSVIEPVVENSGIL", "protein stability index": 1.54}, {"variant": "LIYYYLEDDSMSVIEPVVENSGIL", "protein stability index": 1.92}, {"variant": "AIYYYLEDDSMSVIEPVVENSGIL", "protein stability index": 2.06}, {"variant": "YIYYYLEDDSMSVIEPVVENSGIL", "protein stability index": 1.81}, {"variant": "PIYYYLEDDSMSVIEPVVENSGIL", "protein stability index": 2.15}, {"variant": "DIYYYLEDDSMSVIEPVVENSGIL", "protein stability index": 1.59}, {"variant": "WIYYYLEDDSMSVIEPVVENSGIL", "protein stability index": 1.61}, {"variant": "FIYYYLEDDSMSVIEPVVENSGIL", "protein stability index": 2.88}, {"variant": "TIYYYLEDDSMSVIEPVVENSGIL", "protein stability index": 1.4}, {"variant": "RIYYYLEDDSMSVIEPVVENSGIL", "protein stability index": 1.32}, {"variant": "GIYYYLEDDSMSVIEPVVENSGIL", "protein stability index": 2.08}, {"variant": "EIYYYLEDDSMSVIEPVVENSGIL", "protein stability index": 2.48}]}]}
